Assay results: the supplement of paper PMC7877785
± gives the uncertainty stated by the source.

Assay: self-splicing fitness, log relative to wild type (ln ratio); higher = more splicing; Tetrahymena group I intron in knt gene, E. coli kanamycin selection, DiMSum; sequences stand for … in CUCUCU…GGAGGGAAAAGUUAUCAGGCAUGCACCUGGUAGCUAGUCUUUAAACCAAUAGAUUGCAUCGGUUUAAAAGGCAAGACCGUCAAAUUGCGGGAAAGGGGUCAACAGCCGUUCAGUACCAAGUCUCAGGGGAAACUUUGAGAUGGCCUUGCAAAGGGUAUGGUAAUAAGCUGACGGACAUGGUCCUAACCACGCAGCCAAGUCCUAAGUCAACAGAUCUUCUGUUGAUAUGGAUGCAGUUCACAGACUAAAUGUCGGUCGGGGAAGAUGUAUUCUUCUCAUAAGAUAUAGUCGGACCUCUCCUUAAUGGGAGCUAGCGGAUGAAGUGAUGCAACACUGGAGCCGCUGGGAACUAAUUUGUAUGCGAAAGUAUAUUGAUUAGUUUUGGAGUACUCGUGGUCG
Outline: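 The eight P1ex-region nucleotides of an intron in the knt kanamycin-resistance gene on pET-22b(+) were all randomised and the library put into E. coli BL21(DE3). Six replicate transformations were grown overnight at 37°C or 30°C on LB agar with or without 25 μg/mL kanamycin, together with 100 μg/mL carbenicillin, 50 μM IPTG and 0.2% rhamnose. Colonies were pooled and amplicon-sequenced on an Illumina HiSeq 2500. Fitness from DiMSum is the error-weighted combination of wild-type-normalised replicate fold changes, kanamycin over none.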

Row | Sequence | self-splicing fitness (ln) (30 °C) | self-splicing fitness (ln) (37 °C)
1 | GUCGAGCAAUAUUACGCAUG | -3.47 ± 0.25 | -2.43 ± 0.22
2 | GUCGAGCAAUAUUACGCAUU | -2.45 ± 0.27 | -0.95 ± 0.25
3 | GUCGAGCAAUAUUACGCCAU | -2.99 ± 0.28 | -2.4 ± 0.24
4 | GUCGAGCAAUAUUACGCCUU | -1.46 ± 0.28 | -1.77 ± 0.41
5 | GUCGAGCAAUAUUACGCGUG | -1.25 ± 0.16 | -1.24 ± 0.21
6 | GUCGAGCAAUAUUACGCGUU | -1.64 ± 0.11 | -0.556 ± 0.14
7 | GUCGAGCAAUAUUACGCUGA |  | -2.01 ± 0.43
8 | GUCGAGCAAUAUUACGGACG | -1.43 ± 0.18 | -0.738 ± 0.21
9 | GUCGAGCAAUAUUACGGCCC |  | -1.43 ± 0.4
10 | GUCGAGCAAUAUUACGGCGC | -0.811 ± 0.25 | -0.631 ± 0.44
11 | GUCGAGCAAUAUUACGGCGU | -0.43 ± 0.19 | -0.689 ± 0.14
12 | GUCGAGCAAUAUUACGGUAC | -1.98 ± 0.11 | -1.91 ± 0.16
13 | GUCGAGCAAUAUUACGGUCG | -2.44 ± 0.22 | -1.94 ± 0.28
14 | GUCGAGCAAUAUUACGGUCU | -3.35 ± 0.28 | -1.12 ± 0.18
15 | GUCGAGCAAUAUUACGUGUA | -3.26 ± 0.2 | -2.12 ± 0.19
16 | GUCUAGCAAUAUUACGAACA | -1.13 ± 0.13 | -0.831 ± 0.11
17 | GUCUAGCAAUAUUACGAACC | -1.25 ± 0.19 | -0.145 ± 0.28
18 | GUCUAGCAAUAUUACGACAU | -0.643 ± 0.014 | -0.146 ± 0.032
19 | GUCUAGCAAUAUUACGAGUG | -1.99 ± 0.1 | -1.05 ± 0.1

Row | Sequence | self-splicing fitness (ln) (30 °C) | self-splicing fitness (ln) (37 °C)
20 | GUCUAGCAAUAUUACGCGCG | -1.36 ± 0.15 | -0.687 ± 0.14
21 | GUCUAGCAAUAUUACGCGUG | -0.894 ± 0.058 | -0.777 ± 0.072
22 | GUCUAGCAAUAUUACGCUAG | -2.97 ± 0.32 | -2.31 ± 0.31
23 | GUCUAGCAAUAUUACGCUUA | -0.87 ± 0.077 | 0.645 ± 0.097
24 | GUCUAGCAAUAUUACGGCGA | -0.49 ± 0.22 | -0.132 ± 0.21
25 | GUCUAGCAAUAUUACGGCGG | -2.66 ± 0.42 | -2.32 ± 0.4
26 | GUCUAGCAAUAUUACGGCUG | -2.04 ± 0.18 | -1.91 ± 0.21
27 | GUCUAGCAAUAUUACGGGCG | -1.66 ± 0.28 | -0.341 ± 0.17
28 | GUCUAGCAAUAUUACGGGCU | -3.5 ± 0.27 | -3.73 ± 0.3
29 | GUCUAGCAAUAUUACGGGUA | -1.28 ± 0.11 | -0.285 ± 0.09
30 | GUCUAGCAAUAUUACGGUAU | -0.441 ± 0.1 | 0.315 ± 0.11
31 | GUCUAGCAAUAUUACGUAAA | -0.871 ± 0.085 | 0.379 ± 0.092
32 | GUCUAGCAAUAUUACGUCCA | -1.07 ± 0.31 | -0.455 ± 0.21
33 | GUCUAGCAAUAUUACGUCCC | 0.0985 ± 0.14 | -0.0539 ± 0.14
34 | GUCUAGCAAUAUUACGUCUA | -1.33 ± 0.23 | -1.22 ± 0.16
35 | GUCUAGCAAUAUUACGUGUA | -0.862 ± 0.084 | -0.516 ± 0.086
36 | GUGAAGCAAUAUUACGAAGA | -0.478 ± 0.086 | -1.11 ± 0.14
37 | GUGAAGCAAUAUUACGAAUG | -0.846 ± 0.075 | -0.708 ± 0.11
38 | GUGAAGCAAUAUUACGAGAU | -2.25 ± 0.16 | -0.51 ± 0.19
